Test results: paper PMC8378251, “Biochemical and Structural Characterisation of a Novel D-Lyxose Isomerase From the Hyperthermophilic Archaeon Thermofilum sp” (Frontiers in Bioengineering and Biotechnology, 2021)

Target: the molecule itself
Experiment: SEC; calibrated Superdex 200 pg HiLoad 16/600, 25 mM Tris-HCl pH 8.0, 150 mM NaCl, 1.0 ml/min; apparent molecular mass ~46 kDa

B1: D-lyxose isomerase from Thermofilum sp. (TsLI) (enzyme, Thermofilum sp. ex4484_79)
chain: MLTKELVKEAREKAIRMLEKACIAITDEEKEKIEVTDFGLGVLYTFGLEILVYVNNERYCAKELVMFPRQICPEHRHPPIGSYLGKQETFRCRWGEVYLYVPGTPTPNPRARIPEEKKRYFTVWHEIVLRPGEQYTIPPNTLHWFQAGDEGAIVSEFSSQSIDEKDIFTDPNVKRIPEIV
notes: locus tag B6U94_07925; synthetic gene cloned into pET19b; subunit about 23 kDa; Homodimer; in the crystal the two monomers are joined by a disulfide bond between C22 of each subunit; No removal of the His tag is described; also called T. sp; LI; source: E. coli Rosetta (DE3) pLysS, purified (heat precipitation at 75°C, Ni-NTA, SEC)
stoichiometry N: 2
